From the supplement of paper PMC10567573

B1: OAS1 (parent)
chain: TPAKSLDKFIEDYLLPDTCFRMQI

Variants of: B1
Experiment: protein stability index of a GFP-peptide fusion (GPS, HEK-293T) (PSI 1-6); higher = more stable
Settings: c terminus: a fixed tail appended
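Also: lentivirally expressed fusions sorted by FACS into six bins by GFP to DsRed ratio, PSI derived from sequencing read proportions per bin multiplied by bin number.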

Protein stability index, by site and new letter:
F20: Q 1.58; N 1.95; S 2.28; C 2.15; E 1.97; L 2.2; D 2.43; K 2.4; Y 2.56; W 3.38; P 1.75; M 3.12; I 3.6; G 1.74; A 2.23; T 2.21; H 1.47; R 2.8; V 2.97
E11: V 3.93; A 2.77; G 3; M 3.78; H 1.26; R 4.73; W 2.84; P 3.89; F 2.29; D 2.34; T 2.33; L 3.59; Y 1.66; K 2.83; S 1.97; I 2.61; N 3.04; Q 2.19; C 2.38
L14: T 2.05; V 2.83; W 2.18; P 2.46; K 2.37; M 3.5; I 2.08; Y 3.1; E 1.74; H 2.62; G 2.84; N 3.44; Q 1.62; F 3.94; D 1.77; C 2.35; S 1.74; R 1.8
P16: Q 3.14; N 2.65; I 2.41; W 1.9; V 3.9; Y 1.82; S 2.49; R 3.61; C 2.44; K 2.78; T 2.68; H 2.28; M 1.84; E 1.93; A 2.73
I24: R 2.43; S 1.84; K 1.99; F 2.76; L 2.15; D 2.47; T 1.46; C 2.23; H 2.22; E 1.85; W 2.39; P 2.12; Q 1.67; A 1.74; G 1.55; Y 1.56; N 1.76; V 2; M 1.7
T18: V 2.23; N 2.41; C 3.48; K 1.83; I 2.04; Y 3.93; P 1.59; R 3.05; G 3.04; F 2.45; H 2.22; E 3.65; W 2.58; Q 2.89; A 2.25; L 2.42; D 3.16; M 2.36
Y13: V 2.87; Q 1.5; R 1.27; L 3.57; P 1.57; F 3.4; D 2.36; G 1.85; I 2.54; A 1.98; N 1.85; W 3.04; S 2.22; C 3.56; T 1.9; E 1.79; M 2.12
D17: H 2.43; K 2.51; P 3.25; S 2.79; F 3.31; R 2.98; Y 2.32; L 3.49; Q 1.88; E 2.69; G 3.94; T 2.03; A 2.9; N 1.77; M 2.99
D12: I 1.4; L 2.81; H 2.25; E 2.14; C 1.76; F 2.97; A 3.14; Y 2.19; G 1.79; N 2.91; W 2.51; Q 2.92; S 2.1; K 2.75; M 2.77; R 3.33; T 2.58
R21: W 1.43; Y 2.44; D 1.56; L 3.64; P 1.31; F 2.13; M 2.31; K 2.46; H 3.05; A 3.28; T 3.86; N 2.73; Q 3.37; I 2.93; S 3.4; V 3.2; G 2.33
K8: V 3.42; W 1.98; T 3.17
L15: Q 3.04; T 1.74; W 2.56; A 1.72; S 2.26; V 3.19; R 3.08; I 3.88; G 2.43; P 2.31; H 2.12; D 1.74; K 2.07; E 3.04; F 3.79; N 2.21
M22: Q 1.5; R 1.94; H 2.28; I 3.42; K 1.98; L 2.39; T 2.21; D 2.1; G 2.51; F 1.35; S 1.64; Y 2.9; W 2.45; P 2.03; C 2.94; V 2.23; N 1.99; E 2.23; A 1.93
Q23: N 1.42; S 5.04; H 3.27; R 3.21; W 3.07; I 2.22; T 2.48; G 3.25; E 2.6; L 3.03; V 2.56; Y 3.27; P 1.99; K 1.54; M 3.2; F 2.13; D 2.73; C 3.21; A 3.37
F9: H 2.91; A 2.42; R 2.08; C 2.66; S 2.32; G 1.62; K 2.13; V 3.9; D 2.17; L 3.52; W 3.55; P 1.97; Q 2.15; E 1.75; Y 1.96; N 3.1; M 3.26; T 2.95
I10: S 1.7; R 2.78; L 3.56; V 3.54; D 1.55; Y 2.38; K 1.31; A 2.48; T 2.35; H 1.92; F 3.41; N 1.51; C 3.19; E 2.52; Q 1.67; G 2.23; M 3.83; P 1.87
C19: H 2.96; G 2.44; T 2.24; A 2.88; V 3.28; K 1.59; E 1.43; L 2.02; Y 3.22; Q 2.3; N 3.42; I 4.78; D 1.62; F 2.51; W 3.2; R 3.1; P 2.68
